Results on eight molecules are retold here after patent publication US20180339043A1 (JANUX THERAPEUTICS, published 2018).

As usually defined, the EC50 is the midpoint of the concentration-response curve. A word on the EC50 (read off the curve): it is the concentration needed to bring the measured effect to its halfway point.

Primed or numbered codes have the meaning given here. Ends that are not written are not given here. Biotin′ = not defined here

Experiment [1] deals with T1, anti-mouse CTLA-4 antibody (clone 9D9).
T1 construct: also called 9D9 antibody; anti-CTLA4
Description: competition ELISA: 0.3 nM anti-CTLA Ab / 30 min with peptide, then on mouse CTLA-4 (Example 11); competitor mouse CTLA-4. A general note: ELISA stands for enzyme-linked immunosorbent assay.
Description: (§1) Following this incubation the peptide-antibody complexes were transferred to mouse CTLA-4 coated and blocked ELISA plates and incubated further. Following a brief binding period the plates were washed and target bound antibody was detected by either anti-mouse Fc or anti-mouse kappa chain HRP conjugated antibodies using standard TMB-based chromogenic ELISA procedures. The effects of competition were determined by standard IC50 analysis.

Experiment [2] addresses T2, PD-L1 antibody.
T2 construct: also called anti-PD-L1
Nature of the experiment: dissociation ELISA: PD-L1 antibody dilution series on immobilised biotinylated peptide, incubation at pH 7.2.

The target of experiment [3] is T2, PD-L1 antibody. Description: dissociation ELISA: PD-L1 antibody dilution series on immobilised biotinylated peptide, incubation at pH 5.4.
The target in experiment [4] is T2, PD-L1 antibody. Description: dissociation ELISA: PD-L1 antibody dilution series on immobilised biotinylated peptide.
Experiment [5] has as its target T2, PD-L1 antibody. Nature of the experiment: dissociation ELISA: PD-L1 antibody dilution series on immobilised biotinylated peptide, incubation at pH 6.0.
Experiment [6] deals with T3, Peptide 15 with C-terminal biotin (Example 13) (not fully specified; cysteine pairing not given here).
T3 peptide: GGPCNQVECHHQFT-{Biotin′}
Nature of the experiment: ELISA, biotinylated Peptide 15 on Neutravidin, Fab titrated at pH 7.4 (Example 13).

Experiment [7] has as its target T1, anti-mouse CTLA-4 antibody (clone 9D9). Nature of the experiment: competition ELISA: 0.3 nM anti-CTLA Ab / 30 min with peptide, then on mouse CTLA-4 (Example 11).
Description: as §1

For the molecule GGCPSLHPQWIHVC [Peptide 16], the binding result in experiment [1] is “binds”.
Turning to GGCQIHDPHTWHLC [Peptide 19], the binding result in experiment [1] was “binds”.

B1: Peptide 24 (peptide)
peptide: GGCHNKSGLFYHYC
modifications: cysteine pairing not given here; also: biotinylated
notes: chemically synthesized biotinylated peptide
On to B1, for which the EC50 in experiment [2] was determined as 0.2 nM; in experiment [3] it was 1.3 nM; in experiment [5], 0.56 nM. Moreover, the “pH 5.4: pH 7.2 EC 50 ratio” value in experiment [4] was 6.6. The “pH 6.0: pH 7.2 EC 50 ratio” value in experiment [4] was found to be 2.8.

B2: Peptide 20 (peptide)
peptide: QLFYPSTYHIID
modifications: also: biotinylated
notes: as for B1
For the molecule B2, the EC50 in experiment [2] came to 0.13 nM; in experiment [3], 0.84 nM; in experiment [5], 0.21 nM. Further, the “pH 5.4: pH 7.2 EC 50 ratio” value in experiment [4] was 6.7. Further, the “pH 6.0: pH 7.2 EC 50 ratio” value in experiment [4] came out at 1.7.

B3: anti-mouse CTLA-4 (clone 9D9) Fab fragment (Fab, V domains shown)
VH: EAKLQESGPVLVKPGASVKMSCKASGYTFTDYYMNWVKQSHGKSLEWIGVINPYNGDTSYNQKFKGKATLTVDKSSSTAYMELNSLTSEDSAVYYCARYYGSWFAYWGQGTLITVST
VL: DIVMTQTTLSLPVSLGDQASISCRSSQSIVHSNGNTYLEWYLQKPGQSPKLLIYKVSNRFSGVPDRFSGSGSGTDFTLKISRVEAEDLGVYYCFQGSHVPYTFGGGTKLEIKR
notes: Monovalent Fab fragment of 9D9; also called mCTLA-4 Fab; a-mCTLA-4 Fab
As to B3, the “EC50 (read off the curve)” value in experiment [6] was approximately 200 nM.

B4: Peptide 23 (peptide)
peptide: GGHCVDMVDFYQQTCQ
modifications: cysteine pairing not given here; also: biotinylated
notes: Chemically synthesized biotinylated peptide; also called 23 (Control)
B4: the EC50 in experiment [2] was found to be 0.3 nM; in experiment [3], 3.9 nM; in experiment [5], 1.3 nM. Moreover, the “pH 5.4: pH 7.2 EC 50 ratio” value in experiment [4] is 12.9. Also, the “pH 6.0: pH 7.2 EC 50 ratio” value in experiment [4] is 4.3. Also, in experiment [7], the binding result was “no binding (tested: 50 uM)”.

B5: Peptide 29 (peptide)
peptide: GGLCSTFYEPQVDICY
modifications: cysteine pairing not given here; also: biotinylated
notes: as for B1
As for B5, the values for the EC50 in experiment [2], in experiment [3] and in experiment [5] were 0.23 nM, 1.5 nM and 0.49 nM, respectively. For the same molecule, the “pH 5.4: pH 7.2 EC 50 ratio” value in experiment [4] was determined as 6.5. Besides, in experiment [4], the “pH 6.0: pH 7.2 EC 50 ratio” value is 2.1.

B6: Peptide 22 (peptide)
peptide: GGMCHELFYSNLNWCQ
modifications: cysteine pairing not given here; also: biotinylated
notes: as for B1
B6: the EC50 in experiment [2] is 0.045 nM; in experiment [3], 0.35 nM; in experiment [5], 0.07 nM. In experiment [4], the “pH 5.4: pH 7.2 EC 50 ratio” value was determined as 7.8. Moreover, in experiment [4], the “pH 6.0: pH 7.2 EC 50 ratio” value came out at 1.5.
